Publication doi:10.1101/2020.06.17.157057
Like-named read-outs stand apart in the source and are kept apart here.

Assays:
[1] = molecular target: Maltose Binding Protein (MBP), tethered between beads by DNA handles [MBP: P0AEX9]; test: optical tweezers
[2] = molecular target: Maltose Binding Protein (MBP), tethered between beads by DNA handles [MBP: P0AEX9]; test: optical tweezers; remark: listed apart in the source

| tethers that switched to a prolonged unfolded state [1] | tethers that switched to a prolonged unfolded state [2] | Substance |
| --- | --- | --- |
| 30% | – | GroEL398A (slowly hydrolyzing GroEL) (from UniProt P0A6F5 1-548) (natural protein) |
| 50% | 20% | GroEL (wild type) (from UniProt P0A6F5 2-525) (natural protein) |
